The text below walks through data of US20210155699A1.

Test [1] concerns the target 2F8-HG-Y275A. Briefly: non-covalent nano-ESI MS, 0.01-10 uM; self-dimerisation (FIG. 6).
In test [2] the target is 2F8-HG-L236V. The description is as above.
Test [3] concerns the target purified EGFr (Sigma) (UniProt P00533). Briefly: ELISA on coated purified EGFr (50 ng/well), without and with polyclonal human IgG (IVIG), both curves in the same bundle. In general terms: ELISA stands for enzyme-linked immunosorbent assay.
In test [4] the target is EGFr in A431 cells (UniProt P00533).
For test [5], the target named is 2F8-HG-F273A. Briefly: non-covalent nano-ESI MS, 0.01-10 uM; self-dimerisation (FIG. 6).

Residue numbers refer to the chain shown, from its start. Numbers in names are those of the source.

For 2F8-HG-Y275A (antibody), in test [1], the percent monomeric at low concentrations is 100%.
As to 2F8-HG-L236V (antibody), in test [2], the percent monomeric at low concentrations was 100%.
One may read the EC50 (read off the curve) as the concentration giving half of the maximal effect. A low value points to greater potency. On to 2F8-HG-R277A (antibody), for which, in test [3], the EC50 (read off the curve) was 0.08 µg/mL. In test [4], this molecule showed an IC50 (read off the curve) of 3 nM.
In the case of 2F8-HG-R277K (antibody), in test [3], the concentration for a half-maximal effect (EC50 (read off the curve)) is 0.08 µg/mL.

B1: 2F8-HG-F273L (antibody, part only; not given: anti-EGFr VH and light chain, part only)
heavy, part: ASTKGPSVFPLAPCSRSTSESTAALGCLVKDYFPEPVTVSWNSGALTSGVHTFPAVLQSSGLYSLSSVVTVPSSSLGTKTYTCNVDHKPSNTKVDKRVAPEFLGGPSVFLFPPKPKDTLMISRTPEVTCVVVDVSQEDPEVQFNWYVDGVEVHNAKTKPREEQFNSTYRVVSVLTVLHQDWLNGKEYKCKVSNKGLPSSIEKTISKAKGQPREPQVYTLPPSQEEMTKNQVSLTCLVKGFYPSDIAVEWESNGQPENNYKTTPPVLDSDGSFLLYSRLTVDKSRWQEGNVFSCSVMHEALHNHYTQKSLSLSLGK
With B1, the EC50 (read off the curve) in test [3] is 0.08 µg/mL.

B2: 2F8-HG-F273A (antibody, part only; not given: anti-EGFr VH and light chain, part only)
heavy, part: B1 heavy, part with L273A
B2: the EC50 (read off the curve) in test [3] turned out to be 0.08 µg/mL. The percent monomeric at low concentrations in test [5] was determined as 100%.
